According to patent US12344663 (CDR LIFE, dated 2025):

What was measured:
human complement C3 [1] = molecular target: T1, human complement C3 (human, UniProt P01024 23-1663); test: cell-based or functional assay
human C3 P314L = molecular target: T2, human C3 P314L (human, UniProt P01024 23-1663, limits assumed); test: SPR (Biacore T100), target immobilized, single cycle kinetics, 1:1 Langmuir fit
T2 construct: Expressed in CHO cells with an N-terminal 6×His tag; also called C3 SNP1 P314L; C3 SNP P314L
T2 sequence (P01024 other isoform, or with tags, fused parts or gaps P314L P314L limits assumed): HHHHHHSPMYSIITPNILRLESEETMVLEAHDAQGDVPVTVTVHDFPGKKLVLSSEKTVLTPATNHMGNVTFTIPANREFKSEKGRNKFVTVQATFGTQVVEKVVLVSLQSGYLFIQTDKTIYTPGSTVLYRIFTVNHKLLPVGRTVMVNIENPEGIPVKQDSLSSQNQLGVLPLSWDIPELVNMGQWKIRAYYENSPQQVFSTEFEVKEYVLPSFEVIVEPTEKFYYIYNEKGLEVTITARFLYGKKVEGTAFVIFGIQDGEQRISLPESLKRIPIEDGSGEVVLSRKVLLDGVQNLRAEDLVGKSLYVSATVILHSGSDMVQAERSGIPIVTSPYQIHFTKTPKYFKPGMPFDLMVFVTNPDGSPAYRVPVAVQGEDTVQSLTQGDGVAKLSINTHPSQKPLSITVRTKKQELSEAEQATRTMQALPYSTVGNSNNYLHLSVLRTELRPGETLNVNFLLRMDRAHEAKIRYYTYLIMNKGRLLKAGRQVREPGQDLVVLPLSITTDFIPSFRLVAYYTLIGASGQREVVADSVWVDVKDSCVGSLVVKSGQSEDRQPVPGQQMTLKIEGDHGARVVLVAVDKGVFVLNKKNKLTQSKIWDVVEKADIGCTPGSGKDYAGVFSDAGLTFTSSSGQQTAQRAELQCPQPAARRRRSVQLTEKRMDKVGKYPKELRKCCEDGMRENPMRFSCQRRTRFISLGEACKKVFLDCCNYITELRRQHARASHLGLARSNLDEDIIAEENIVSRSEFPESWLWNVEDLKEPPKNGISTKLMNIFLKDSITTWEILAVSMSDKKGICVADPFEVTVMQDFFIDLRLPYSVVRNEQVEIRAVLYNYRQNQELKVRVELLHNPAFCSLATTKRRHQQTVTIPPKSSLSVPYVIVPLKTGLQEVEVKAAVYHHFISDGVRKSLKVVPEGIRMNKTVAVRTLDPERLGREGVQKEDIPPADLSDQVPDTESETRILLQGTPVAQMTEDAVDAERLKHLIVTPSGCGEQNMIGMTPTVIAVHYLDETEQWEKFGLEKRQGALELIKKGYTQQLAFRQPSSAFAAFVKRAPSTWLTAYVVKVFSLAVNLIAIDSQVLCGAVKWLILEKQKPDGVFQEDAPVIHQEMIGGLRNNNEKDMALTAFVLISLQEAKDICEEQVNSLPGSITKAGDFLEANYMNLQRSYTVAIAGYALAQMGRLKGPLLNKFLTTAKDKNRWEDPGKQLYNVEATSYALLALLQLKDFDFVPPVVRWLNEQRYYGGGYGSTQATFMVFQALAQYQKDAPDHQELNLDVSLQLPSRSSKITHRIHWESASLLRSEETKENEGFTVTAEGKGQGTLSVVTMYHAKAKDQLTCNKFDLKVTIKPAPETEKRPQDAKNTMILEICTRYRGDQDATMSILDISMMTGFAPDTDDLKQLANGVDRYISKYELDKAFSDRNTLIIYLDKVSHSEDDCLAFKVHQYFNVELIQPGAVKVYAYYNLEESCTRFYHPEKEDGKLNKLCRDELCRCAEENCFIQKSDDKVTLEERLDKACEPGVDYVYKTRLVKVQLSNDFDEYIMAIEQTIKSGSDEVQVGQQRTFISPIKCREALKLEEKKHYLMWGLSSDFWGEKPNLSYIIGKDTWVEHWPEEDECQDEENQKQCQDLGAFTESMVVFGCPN
Description: (§1) The kinetic parameters of the candidates are determined using a surface plasmon resonance (SPR) and Biacore T100 device. C3 and different variants thereof (Table 19) are immobilized as a ligand on a HC30M SPR sensor chip (XanTec bionanalytics, Germany) using EDC/[…] linking chemistry. Five increasing concentrations of each molecule (analyte) are consecutively injected using the single cycle kinetics (SCK) mode to determine the kinetic parameters. Regeneration between the candidates is done with 10 mM glycine*HCl, 2 M NaCl, pH 3.5. The data is fitted to a 1:1 Langmuir binding model and the kinetic parameters of on-rate (ka), off-rate (kd), and affinity […] were determined.

human C3b [2] = molecular target: T3, human C3b (human, UniProt P01024 23-667; P01024 749-1663, limits assumed); test: as above
T3 construct: domain: C3b; also called C3 cleavage fragments C3b
T3 sequence (P01024 23-667 limits assumed, chain 1 of 2): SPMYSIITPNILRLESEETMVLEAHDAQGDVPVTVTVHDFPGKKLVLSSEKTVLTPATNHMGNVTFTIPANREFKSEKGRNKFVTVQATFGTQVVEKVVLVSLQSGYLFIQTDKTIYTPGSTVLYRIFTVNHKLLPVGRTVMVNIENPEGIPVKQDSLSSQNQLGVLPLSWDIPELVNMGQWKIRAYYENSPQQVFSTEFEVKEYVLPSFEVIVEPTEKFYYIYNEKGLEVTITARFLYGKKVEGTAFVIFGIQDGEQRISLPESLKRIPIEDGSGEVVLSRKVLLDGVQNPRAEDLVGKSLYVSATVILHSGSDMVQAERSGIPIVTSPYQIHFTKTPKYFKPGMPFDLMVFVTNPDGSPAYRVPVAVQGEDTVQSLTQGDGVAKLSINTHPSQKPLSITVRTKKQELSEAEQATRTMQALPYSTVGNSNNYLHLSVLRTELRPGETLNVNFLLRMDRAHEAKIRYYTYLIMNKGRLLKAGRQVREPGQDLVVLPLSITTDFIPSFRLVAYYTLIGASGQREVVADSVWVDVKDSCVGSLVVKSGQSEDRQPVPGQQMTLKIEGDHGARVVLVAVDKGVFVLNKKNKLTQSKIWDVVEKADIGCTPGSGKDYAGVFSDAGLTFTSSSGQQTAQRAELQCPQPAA
T3 sequence (P01024 749-1663 limits assumed, chain 2 of 2): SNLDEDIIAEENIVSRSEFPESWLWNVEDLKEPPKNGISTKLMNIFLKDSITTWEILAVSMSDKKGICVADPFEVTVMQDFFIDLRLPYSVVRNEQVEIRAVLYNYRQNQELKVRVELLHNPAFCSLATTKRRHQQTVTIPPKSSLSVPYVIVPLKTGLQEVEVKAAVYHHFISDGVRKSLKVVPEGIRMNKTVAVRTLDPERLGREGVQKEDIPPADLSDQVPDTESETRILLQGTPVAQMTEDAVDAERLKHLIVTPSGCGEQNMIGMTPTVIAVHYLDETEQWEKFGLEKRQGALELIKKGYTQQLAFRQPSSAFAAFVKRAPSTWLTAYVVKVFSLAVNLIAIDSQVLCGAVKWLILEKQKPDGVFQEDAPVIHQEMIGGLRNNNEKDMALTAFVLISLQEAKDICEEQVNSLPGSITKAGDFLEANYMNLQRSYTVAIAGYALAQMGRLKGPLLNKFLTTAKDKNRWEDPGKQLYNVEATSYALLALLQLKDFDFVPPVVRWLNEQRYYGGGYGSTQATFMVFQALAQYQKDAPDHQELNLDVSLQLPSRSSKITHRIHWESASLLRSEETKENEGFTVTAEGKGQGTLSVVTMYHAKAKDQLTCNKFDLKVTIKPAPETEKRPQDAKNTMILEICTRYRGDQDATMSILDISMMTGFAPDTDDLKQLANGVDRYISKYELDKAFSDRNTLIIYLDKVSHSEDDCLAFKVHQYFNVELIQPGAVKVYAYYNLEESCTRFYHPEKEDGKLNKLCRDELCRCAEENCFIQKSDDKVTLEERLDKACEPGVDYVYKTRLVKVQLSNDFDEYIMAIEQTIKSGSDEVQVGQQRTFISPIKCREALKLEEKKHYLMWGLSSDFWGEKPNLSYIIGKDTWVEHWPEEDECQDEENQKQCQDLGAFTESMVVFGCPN
Description: as §1

cynomolgus C3 = molecular target: T4, cynomolgus C3 (cynomolgus (Macaca fascicularis)); test: as above
T4 construct: also called cyno C3
Description: as §1

human C3 R102G = molecular target: T5, human C3 R102G (human, UniProt P01024 23-1663, limits assumed); test: as above
T5 construct: Expressed in CHO cells with an N-terminal 6×His tag; also called C3 SNP2 R102G; C3 SNP R102G
T5 sequence (P01024 other isoform, or with tags, fused parts or gaps R102G R102G limits assumed): as the sequence (P01024 other isoform, or with tags, fused parts or gaps P314L P314L limits assumed) above, with R86G, L298P counted along it
Description: as §1

[3] = molecular target: T6, recombinant wild-type human C3 (human, UniProt P01024 23-1663, limits assumed); test: as above
T6 construct: Expressed in CHO cells with an N-terminal 6×His tag; also called recombinant C3; wildtype C3
T6 sequence (P01024 other isoform, or with tags, fused parts or gaps limits assumed): as the sequence (P01024 other isoform, or with tags, fused parts or gaps P314L P314L limits assumed) above, with L298P counted along it
Description: as §1

human complement C3 [4] = molecular target: T1, human complement C3; test: as above
Description: as §1

human C3b [5] = molecular target: T3, human C3b; test: as above; remark: listed apart in the source
Description: as §1

human complement C3 [6] = molecular target: T1, human complement C3; test: as above; remark: listed apart in the source
Description: as §1

human C3b [7] = molecular target: T3, human C3b; test: method not given
human complement C3 [8] = molecular target: T1, human complement C3; test: method not given
human C3b [9] = molecular target: T3, human C3b; test: SPR; reference: the same molecule on intact human C3
Description: as §1

T1 sequence (P01024 23-1663 limits assumed): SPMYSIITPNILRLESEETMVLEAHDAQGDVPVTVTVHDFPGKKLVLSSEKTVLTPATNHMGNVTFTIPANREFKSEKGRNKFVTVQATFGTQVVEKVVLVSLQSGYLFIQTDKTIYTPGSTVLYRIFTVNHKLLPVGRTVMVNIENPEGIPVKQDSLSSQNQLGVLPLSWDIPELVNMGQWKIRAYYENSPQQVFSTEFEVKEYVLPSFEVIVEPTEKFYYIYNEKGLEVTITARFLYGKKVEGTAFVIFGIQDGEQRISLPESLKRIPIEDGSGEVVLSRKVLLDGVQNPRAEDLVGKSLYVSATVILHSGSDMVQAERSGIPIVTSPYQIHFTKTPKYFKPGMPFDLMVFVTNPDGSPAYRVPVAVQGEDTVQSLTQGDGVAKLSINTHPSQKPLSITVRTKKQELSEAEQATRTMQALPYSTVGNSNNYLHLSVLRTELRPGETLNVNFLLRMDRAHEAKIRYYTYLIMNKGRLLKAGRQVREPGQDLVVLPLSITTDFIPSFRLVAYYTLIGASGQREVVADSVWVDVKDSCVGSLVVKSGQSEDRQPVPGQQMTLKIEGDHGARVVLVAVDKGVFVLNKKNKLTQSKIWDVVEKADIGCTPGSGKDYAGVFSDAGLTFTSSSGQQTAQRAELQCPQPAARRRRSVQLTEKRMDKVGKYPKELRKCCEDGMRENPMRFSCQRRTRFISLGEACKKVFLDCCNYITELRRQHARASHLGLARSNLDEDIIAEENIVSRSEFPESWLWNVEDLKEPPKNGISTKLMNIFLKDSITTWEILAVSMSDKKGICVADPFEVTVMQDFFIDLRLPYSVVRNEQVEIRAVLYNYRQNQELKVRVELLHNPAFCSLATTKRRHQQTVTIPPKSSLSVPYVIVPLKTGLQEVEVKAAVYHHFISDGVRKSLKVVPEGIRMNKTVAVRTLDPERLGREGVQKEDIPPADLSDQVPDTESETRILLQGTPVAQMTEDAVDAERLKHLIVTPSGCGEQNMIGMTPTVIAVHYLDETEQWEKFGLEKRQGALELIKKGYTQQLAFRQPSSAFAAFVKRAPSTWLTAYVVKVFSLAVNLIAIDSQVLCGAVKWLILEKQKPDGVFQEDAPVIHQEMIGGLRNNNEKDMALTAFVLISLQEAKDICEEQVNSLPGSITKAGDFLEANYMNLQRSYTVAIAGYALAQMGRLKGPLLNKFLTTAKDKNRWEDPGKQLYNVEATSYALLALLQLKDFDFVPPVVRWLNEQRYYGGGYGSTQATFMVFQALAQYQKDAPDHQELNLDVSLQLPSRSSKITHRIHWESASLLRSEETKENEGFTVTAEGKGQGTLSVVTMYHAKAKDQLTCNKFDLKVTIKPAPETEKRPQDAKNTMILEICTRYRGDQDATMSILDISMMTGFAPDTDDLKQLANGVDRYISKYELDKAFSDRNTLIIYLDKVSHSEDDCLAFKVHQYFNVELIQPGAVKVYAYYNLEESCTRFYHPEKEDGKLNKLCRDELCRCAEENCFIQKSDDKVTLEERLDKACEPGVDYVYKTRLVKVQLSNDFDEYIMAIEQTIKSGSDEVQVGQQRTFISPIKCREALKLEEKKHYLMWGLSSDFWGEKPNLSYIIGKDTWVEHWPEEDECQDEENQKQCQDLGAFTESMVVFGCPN

B1: Clone I (scFv)
scFv: MQLVLTQSPSASASLGASVKLTCTLSSAHKTYTIDWYQQQPEKCPRYLMQLKSDGSYTKGSGIPDRFSGSSSGAERYLTISSLQSEDEADYYCGTEGVGGYVFGGGTKLTVLGGGGGSGGGGSGGGGSGGGGSQVQLVESGGGSVQPGRSLRLSCAASGFTFSNYAMNWVRQAPGKGLEWVAVISYDGSNKYYADSVKGRFTISRDNSKNTLYLQMNSLRAEDTASYYCARAVGYHHARLDPWGCGTSVTVSS
notes: also called exemplary antibody of the invention (Clone I); scFv of the invention
In the case of B1, the “IC50 (nM), Alternative Pathway, Hemolysis (rabbit erythrocytes, human serum)” value (human complement C3 [1]) is reported as 705 nM, the “IC50 (nM), Alternative Pathway, MAC deposition (WEISLAB, human serum)” value (human complement C3 [1]) is reported as 344 nM and the “IC50 (nM), Classical Pathway, Hemolysis (antibody-sensitized sheep erythrocytes, human serum)” value (human complement C3 [1]) is reported as 74 nM. The “IC50 (nM), Classical Pathway, MAC deposition (WEISLAB, human serum)” value (human complement C3 [1]) was 79 nM, the “IC50 (nM), Lectin Pathway, MAC deposition (WEISLAB, human serum)” value (human complement C3 [1]) was 67 nM and the Kd (human C3 P314L) was 0.14 nM. It also gave a koff (human C3 P314L) of 4.2e-05 s⁻¹, a kon (human C3 P314L) of 300000 M⁻¹ s⁻¹ and a Kd (human C3b [2]) of 0.149 nM. The koff (human C3b [2]) was 4.8e-05 s⁻¹, the kon (human C3b [2]) was 320000 M⁻¹ s⁻¹ and the Kd (cynomolgus C3) was 0.267 nM. The koff (cynomolgus C3) was 6.3e-05 s⁻¹, the kon (cynomolgus C3) was 240000 M⁻¹ s⁻¹ and the Kd (human C3 R102G) was 0.135 nM. For the same binder, the koff (human C3 R102G) was 4.5e-05 s⁻¹, the kon (human C3 R102G) was 330000 M⁻¹ s⁻¹ and the Kd [3] was 0.148 nM. It also gave a koff [3] of 4.9e-05 s⁻¹, a kon [3] of 330000 M⁻¹ s⁻¹ and a Kd (human complement C3 [4]) of 0.152 nM. The koff (human complement C3 [4]) was 4.7e-05 s⁻¹, the kon (human complement C3 [4]) was 310000 M⁻¹ s⁻¹ and the Kd (human C3b [5]) was 0.149 nM. The Kd (human complement C3 [6]) was 0.152 nM, the Kd (human C3b [7]) was 0.14 nM and the Kd (human complement C3 [8]) was 0.16 nM.

B2: Compound A3 Fab (Fab, V domains shown)
VH: QVQLVQSGAEVKKPGASVKVSCKASGYTFTDFYMDWVRQAPGQRLEWMGYIYPHNGGTTYNQQFTGRVTITVDKSASTAYMELSSLRSEDTAVYYCARRGGFDFDYWGQGTLVTVSS
VL: DIQMTQSPSSLSASVGDRVTITCKASENVDTYVSWYQQKPGKAPKLLIYGASNRYTGVPSRFSGSGSGTDFTFTISSLQPEDIATYHCGQSHSYPLTFGQGTKLEIKR
notes: also called NGM621 surrogate in a Fab format
For B2, the Kd (human complement C3 [6]) was 0.34 nM and the “fold lower affinity to C3b than to intact human C3” value (human C3b [9]) was over 100 fold.
